# Assay results taken from the DeepSol protein solubility set.
# Test: soluble on expression in E. coli; label from the status in PepcDB or PDB records
row,Sequence,soluble on expression in E. coli
1,MSLKNPPQILMPDVVYTDLKKPILVHIKDDESSIKNVQIILHKDDNTSAMVIADEKISNLKDITLQVALPKFGYKENVKSFVLEVIAKDSSFWNFFSGNEARKQIAVLVDNTAPKINIISNSYQIEQGGAGAVVFKADDANLDKVYIETNKGKIFKATPYVKEGYYAALIAWDARDEEFRAFVIATDKAGNISKERIRYYFVNRKYRVSNINLTDKFLDGKIENLANQYAPKDNNLNRYEKFKFVNETLRNSNEKLIHEITSKVPEEKIDNFDLNLFLPLKNGMKVADFADHRYYSYNGQFVSDSYHMGLDLASVAQAPIISNNAGKVVFAAENGIYGLNLIVYHGFGVYSLYGHCSSKNVDLDEMINKQSIIGKTGTSGLALGDHLHFGVLVQGVETRPEQWQDKKWIENNIYNVLNDGKKIILGKNEGHHHHHH,soluble
2,LSKLTVVETPLEVNLPAGDNRVAVRVTPVSLNAGSLKSDAGARFGGGTSGAAGSQSDKGVGLAVAFERPEEGLKADIGTTPMGFKYTTVAGGASVDRPLGNNPDLRYGLNVSRRPVTDSVTSFAGSTDERSGLSWGGVTANGGRGQLSYDDQTIGGYGYGSWHKLVGNNVKSNTRGEVGGGVYWYLRNAEDSKLTAGLSLMGMSYDNDQSYFTYGHGGYFSPQSFYAIGVPVMWAQRTERFSYQVKSSVGVQHFKQDGAEFFPDDSTLQAASAQRYTGQSKTGIGYNLSAAGEYKLDSSLFMGASLGLDNARDYRQFSGALYLRYMFEDI,not soluble
3,MGHHHHHHSHMASRWQNMGTSVRRRSLQHQEQLEDSKELQPVVSHQETSVGALGSLCRQFQRRLPLRAVNLNLRAGPSWKRLETPEPGQQGLQAAARSAKSALGAVSQRIQESCQSGTKWLVETQVKARRRKRGAQKGSGSPTHSLSQKSTRLSGAAPAHSAADPWEKEHHRLSVRMGSHAHPLRRSRREAAFRSPYSSTEPLCSPSESDSDLEPVGAGIQHLQKLSQELDEAIMAEERKQALSDRQGFILKDVYASP,not soluble
4,MRYLIATAVLVAVVLVGWPAAGAPPSCAGLGGTVQAGQICHVHASGPKYMLDMTFPVDYPDQQALTDYITQNRDGFVNVAQGSPLRDQPYQMDATSEQHSSGQPPQATRSVVLKFFQDLGGAHPSTWYKAFNYNLATSQPITFDTLFVPGTTPLDSIYPIVQRELARQTGFGAAILPSTGLDPAHYQNFAITDDSLIFYFAQGELLPSFVGACQAQVPRSAIPPLAI,soluble
5,SPRKESPLRTAVDAAALTTSDIARQLEVKVQRMNTAHEREANAISSFQQAYGIASAHLDRLLLRIPELPLPEIDDRDVDGGRVRGTFASLQRHHQALDDAISAMHQASEKVYTIPGKQATQEQDPALAQLLSVEKRRRSLGHALETLAGRGVEAGTATGLELNRVSSQVNDLVARRDALLRQRESGVQEGGLDSEELEMELQLTTSVLQRLRADLLGERQAMEATAKRLDQASRAALEGERSFSDAVRDRAWGELDNV,not soluble
6,MPNLLDDSFDPTFQSTSKKLVLPSIRKVQPEYDNLPEEQGVNDFSSDELMKLLSFMEGEVQAREDVIDHLKRERTKILLSEAKYGKLNMNDPFAALRRDSAITGEQIDEEKIVQMYESQVDQLDKMMAVQKQSQRNAAVLLVALEKKQYKLVKKLEADREAKIRYAKQGDDLVAHLEKERNQLQQQIEFHIEEKRKAEIAKDKMEMTLGNEKKRHESIVLYLIQERKQMLLKMHELRVKAEQIMLQNQNDPTKPGPSSALSERELIEELKKEVTFLRAERESLTKTQKMVKTENLSLRETVRGQEADLQMLRRNLTLTGAKMSIDKPGNVLPQLPPDTGSLIMANRGAKPAVNRQQPAPPPVARLPNSATFPTEKSRLPRAPPPAVTTPVPRMSIGSLPASSSNVPRTMSSPVKKTPVMGVSSTAVRRPQSAATTTMPTTSVITNTSAVMPLSPDLEQLEAAIQSMNVVTASPPAYSTAMAKRSSSLPREANNNPPGAPIRRSTMNGGMHTSTTGVVSTRIAGPSSNVASERKLSGTVKRNGILAKAFGSSK,not soluble
7,MKLLKTKNCLYYRNGDNKLSEYQLLTQFNPAFINKKIKMCEFQIESMYHMSASTTTCDEIMGVVSVSYPIEKLVIKIIETKAGLQNYKNRSINNMALLKKVLNHYTEKEQKQVVKYMRSNGRYKPYNVIERLQVDLYQASIKQRSERQKQRNTAIENSKIARVNAYHQSSYVKVV,not soluble
8,GTKQKMRTVFSQAQLCALKDRFQKQKYLSLQQMQELSSILNLSYKQVKTWFQNQRMKCKRWQ,soluble
9,MGSDKIHHHHHHMEVIDLLFSLTPKTKKEDLFDRERELKDLEKLLETYPIVVITGLRRVGKSSLVKVFLNKSDLLHITVDGRRLYETSGGNISSHHLTRFLGEELSRISKSQKLLNVLKRVRGITVSGTSIELNPKEFSLSDLLEKLNETAKRRKKKIVIFFDEAQYLRYYGSRGGNDLLALFAYCYDNFENVRFIISGSEVGVLHDFLKLEDYSSPLHGRGIGFLTVRPFTFDQSVDFLMEGFREVGEKINFDVEEIVREIDGIVGYLVLFGVKYLEKKKKDEALKEVFHAVKALFEKEMEELRKRSERYPFILRQIARGINTWSALKNIFRAKGDFIGDSRLYSLLETLEKMSFIEKTQSGYRIVDPVFERILRE,not soluble
10,MSAQTDPGYFFMPNHIILIGASEQPYSLGERVLSNLLSTPFQGKITPVNPRHHTIAGLPAYTSLNKIPGNADLIIAVTLPDSYDTLFKTCRKKQLRHIILIQDWDNLSAAELHTAETAIRKHHGNGLNITACTTAGIQLPSLGLNISTQDGYAAGHTAILTGNAAVSRQIDNILNKLRQGTSRHISLHPGISPITSADWLNRFGHSLHTKTAVLHHNPEEDQRKLFSAIRQFTRHTPLILHITCRTTETDRAVLHCLARHCNFLVSFNADDLEAALRAQLSDLPPLSRLDILSDTPAEWLHAHAPKNLTLHFPNLPHHIRNGHLTGTPTPSICHDIASRQLAHPDTQAVLTILSPSGHEDYKKTARALIRLSEQTAKPLLVSSPFSDGITHFDTPTQAIRTLSYRNTAAALKQAQLDIAPPQPCRLKTPQPQNIKKALAAANPSLLAEALHLPPYRHTTHNAVQFQFDSHPLYGDILTARCNGQTTAVLPPFTTLDSRHLARFAELDGTQTLDQFLHTLTVIPEYRQHILGITLNLNGGQYSSDFLLKTPETHDTPKRKNTGKAAQTLEHAAAKMQSAAAYLKHKNPTAAEFLRHTSEAAAELLGSKTETGAAVPNVLAPYPAAYPKTLSLRNNTTVTITPILPEDAEAKQQFVRSLGPEARYTRFMTHTNELPAATLARLCNPDYHCEAAWTAKDADSNIVAVVRHSRLNRNECEFGITLAEHMRGSGLAQKMMELIIQTAAQQGYRTMSADILKTNTPMIKLAEKSGFTLKESDTEKNLYRAYLNLAADKTTEKTNKNLRTDHKIT,not soluble
11,DRKAVLNAAEQHFSGWKELYLCLVDRDTQGGLVVETGGPLTFSEAERAAADWAWQHDQPAGSGTGTLPSGRWWWWPITAEEGPLALLGVCAREGQSFTDQHRRLLAALTQPLAQALARAQLAQELEAARLHGETEQLRSALLASVSHDLRTP,not soluble
12,MKKIHYTDNYLLKPYHPVTIHVAGAGGTGSQVITNLARMNVALQALGHPGLHVTVFDPDIITEANIGRQLFSEMELGQGKATAAVTRVNRFFGTTWTAENCRYPVRKTQENGDDRTKPANIIITCTDNTRSRLELWRFLKKYRETSVNNERAVYYWMDFGNAQTTGQVFIGTVRNKIRQPASKEFMPVPGMNVITEEVNYSTIEEKDSEPSCSLAEALERQDLYINSILAQVGCDILWRMFKEGRTLYRGAYINLDTLRVNPIPV,not soluble
13,MAHHHHHHMSTHIERLQSEDEVAFKLKGEIAAIEKEIKSWFIKRRLNMELNYSLHNLFTNYNIVGLSINKKIDLKEKMLWHDIVNGKPTLEDTLSLDAKEYKADVYRKMWENSTTTDNPCRLVGSIFFRCLKGNYQLTEQEREGTCMHSFLNFTHCRKALKLQQANNIRTALTKQSAEDTQAKALFERRSALLGKLTGSAP,not soluble
14,MSVDTKIIGSFLQLTNYFAENYPAPCDLISSLTDLWFKQGGMIARMMSCDIQEFKSSDVFYEVLYRKIRVGNSLLADTLDPKMAAEGNLFEICKFYSLYLEHLRKDQSELLTIVLERLASQSDFNSTVILDMFTFFDKLYSEGNVGDWWDFLLGSEDASMVFKTPKKTNRPSNAFSTPTATAKRLPMYGSSTCRSPIAEVVDSPTMKYMRSDRELKTAKKKLVDMEHMVDELESENRNLTEKGRELKLIIDSLKSDVTNKRDTAKSSQQREQELSNILEEKEKESAQLLQQLEESRAALRDEQRHLEHQEAENGKIVEQLKTVSELNEKLTMQVKDLQDASENELASFRQKEKELIDELRMATNENVDLEELLKGVTNGKAGLQFENNCLVGKLEELSFVSDRNKQDADNARAQLEEEREKHRLATEKLHQENIDYMKTSDSRIEMILEESKTRKMMDESTIERLRLDLDNEKSYKKNLEDLLNDLNQRALNSEMANHLQKEGIQSVETYLQMAKKRIEHLELELSATNATIEFQSQQLDRAGNMLITEQEIRNQTSVQYKERTSALENQLSQKDAEIENLKRDLQQLVTKHESELKEQHEQLNVHHQSQQKLHSEAEKLRREHEALGKKNCFLGERCKIFVKDSRSGVMKRSTSSDSLAEFLSKGNDNETLEEMMRLIAQTPRKSVAFSFDLDEDETLKGTPIGFRTNLNETRESIASDEFFDRFPSTFPTRAAPRESVVSIGEPKNQFSPLGTSKDRVKTLTSRNEKVKPHLKSSYATEMGNVTSPSADEENVRKGKSKSIFAKLKGPRRDSFFFGKKKQAE,not soluble
15,MSLYTFKELKRATKQDTVSLPKLKVALLGDTATQLLATAIKGEGILRNYNIELWEAEYNQVERQIMDPTSDYYQFEPDYTIIFHSTHKLLEKHSLVNSDLQNKLADDRLDFVRLLCEQGIGRVIYYNYPEIEDTIWGSYATKVQSSFTYQLTKLNYELMNISQAYPNFFICNLAGISAKYGRNFMFDSSVYVNTEIILSLDALPIISSRTIDIIAAIQGKFKKCLILDLDNTIWGGVVGDDGWENIQVGHGLGIGKAFTEFQEWVKKLKNRGIIIAVCSKNNEGKAKEPFERNPEMVLKLDDIAVFVANWENKADNIRTIQRTLNIGFDSMVFLDDNPFERNMVREHVPGVTVPELPEDPGDYLEYLYTLNLFETASFSEDDKDRTKQYQIEAKRVSLQQSFTNEAEFLKSLDMVSEVKGFDKFNTPRVAQLSQRSNQFNLRTVRYTEAEIAAIESDLHYATFSFTLADRFGDNGLICVIILEKQDTETLFINTWFMSCRVLKRGMENFTLNTLVDYARSNGFKRFIGEYLPSAKNQMVEEHYPHLGFSKMEGGDNAARYVLDVETYEEKECYITKKEGHHHHHH,soluble
16,MGHHHHHHSHMAESHPWSGRPSSSPRRSSTFANYAWKHTIKPNRILIRNARPLVINFATDRLPIIKPVDQIILEDAGTVGSALNLPSESICTRPGLLLFGHYNNDVPVTPLVDFKPDEPLQVVLTAHKTIVVPPGEFVMIIVCVNFEKIKSLDLIIHEMSTSNIPLPPTCGQTFKNFNTATPSLEIYGDVIECNDDQKTCVFTAVFPGLHRRCSLHGPLNFMGFVNSVNITGTILRVYYSGVSEAAPDSILVKFKTSSAVAFSKNPCQGHVPSHDDTLIPLVYTGPTLRLLPLETISIPFNTSFVAQNPDLKAIIYDNNLKDIRISATMWTGEQTPILAHNLTAAVKLIHSGTVFARAAFFSTKENKKACTLKLCPSTILLPGGELSLDTSTLPNCFK,not soluble
17,MSLTASAPRRPAAFLDRDGVINYNDHYVGTRERLRWMPGIAAAIRQLNAAGYYVFIITNQSGVARGMFSEDDVRALHRWMLDELNTQGARIDDVRFCPHHVEGTLDAYRVACEHRKPGPGMILDLAKTWPVDMTRSFVIGDSASDVEAAKAAGIPGFRFEGEDIDVFVKQVLIEMQRAAVSNEGHHHHHH,soluble
